Laboratory results as given in patent US20210403602A1 (Bristol-Myers Squibb, published 2021).

Key:
[1] = biological target: T1, denatured recombinant human IDO protein with a 6-His tag and thrombin site linker (His-Tb-IDO) (human, UniProt P14902 1-403); experiment: direct ELISA of hybridoma supernatants on plates coated with denatured His-Tb-IDO at 2 ug/mL
T1 construct: Immunogen and ELISA coating antigen, used in denatured form; also called denatured tagged antigen
Experimental: After eleven days, hybridoma culture supernatants were collected and screened by direct ELISA for specific binding to denatured His-Tb-IDO. Briefly, 96-well polystyrene microplates (Corning 9018) were coated overnight at 4C with 60 uL of denatured tagged antigen at 2 ug/mL in PBS. The plates were blocked with 200 uL/well of assay buffer containing 0.5% bovine serum albumin in PBS and washed. After the blocking step, 100 uL of supernatant from individual hybridoma culture wells were added and incubated for one hour on a plate shaker at room temperature. The plates were washed three times with PBS and 100 ul of F(ab′)₂ fragment goat anti-mouse IgG Fcγ (1:1000 dilution) (Jackson ImmunoResearch 115-036-071) was added and incubated for 1 hour at RT and washed again with PBS. The plates were then developed with 100 ul/well of ABTS HRP substrate (Surmodics ABTS-1000-01) for 5 to 10 minutes, and analyzed using a PerkinElmer EnVision microplate reader at 405 nm. The data was analyzed using TIBCO Spotfire.

[2] = biological target: T2, human Indoleamine 2,3-dioxygenase (IDO) in fixed cells and tissues (human, UniProt P14902 1-403); experiment: immunohistochemistry on FFPE H1048 cells and cervical SCC tissue, HALO image analysis; antibody concentration printed on the sheet as 0.5 ug/ml, given in the legend as 0.05 ug/ml
T2 construct: also called IDO1; human IDO
Experimental: To further develop a user and clinical friendly assay, mAb 1E7 was optimized for automated IHC using the Leica BondRX platform. The Bond Polymer Refine Detection System (Leica, catalog #DS9800) was used for the detection of IDO1 and all incubations were carried out at room temperature. Briefly, slides were deparaffinized and rehydrated following routine histology procedures. The slides were loaded onto the Leica BondRX automated IHC stainer and antigen retrieved with either the Bond Epitope Retrieval Solution 1 (Leica, catalog #AR9961) or 2 (Leica, catalog #AR9640) for 20 minutes at 95° C. Peroxidase block from the Bond Polymer Refine Detection kit (Leica, catalog #DS9800) was applied to the slides for 10 min, followed by non-specific binding blocking using protein block (Agilent-DAKO, catalog #X0909) supplemented with 0.5% human gamma globulins (Sigma, catalog #G-4386) for 20 min. Primary antibody 1E7 was incubated at 0.03 or 0.05 μg/ml for 60 minutes, and followed by rabbit anti-mouse linker and then anti-rabbit Poly-HRP-IgG from the Bond Polymer Refine Detection Kit for 30 min each step. […] Whole slide digital images of stained slides were captured and viewed using Aperio AT2 ScanScope and e-Slide Manager (Leica), and then analyzed by a pathologist for manual score or with Halo software (Indica) for quantitative image analysis.

T1 sequence (P14902 other isoform, or with tags, fused parts or gaps limits assumed): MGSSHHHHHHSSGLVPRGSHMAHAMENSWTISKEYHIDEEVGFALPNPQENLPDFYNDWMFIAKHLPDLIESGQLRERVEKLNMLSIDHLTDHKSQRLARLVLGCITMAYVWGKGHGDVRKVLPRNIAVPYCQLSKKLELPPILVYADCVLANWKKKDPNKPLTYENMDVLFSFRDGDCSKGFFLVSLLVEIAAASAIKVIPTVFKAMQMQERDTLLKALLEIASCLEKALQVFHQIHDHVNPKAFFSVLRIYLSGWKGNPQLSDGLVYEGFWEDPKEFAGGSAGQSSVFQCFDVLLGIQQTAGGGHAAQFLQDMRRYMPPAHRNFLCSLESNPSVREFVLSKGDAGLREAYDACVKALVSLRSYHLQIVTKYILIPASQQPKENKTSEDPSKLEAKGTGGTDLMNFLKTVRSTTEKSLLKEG
T2 sequence (P14902 whole entry): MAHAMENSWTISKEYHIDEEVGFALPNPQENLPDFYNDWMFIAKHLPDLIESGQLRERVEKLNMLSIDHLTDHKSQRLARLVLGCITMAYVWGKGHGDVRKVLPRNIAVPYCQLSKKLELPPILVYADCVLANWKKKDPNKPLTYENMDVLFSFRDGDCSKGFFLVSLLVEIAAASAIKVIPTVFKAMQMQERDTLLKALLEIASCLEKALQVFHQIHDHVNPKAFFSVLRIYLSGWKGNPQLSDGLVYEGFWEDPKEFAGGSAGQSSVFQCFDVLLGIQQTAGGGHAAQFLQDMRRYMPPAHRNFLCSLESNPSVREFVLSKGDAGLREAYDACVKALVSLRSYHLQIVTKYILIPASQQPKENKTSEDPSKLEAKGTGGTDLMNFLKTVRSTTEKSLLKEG

binding result [1]: binds | binding result [2]: binds
B1: anti-IDO monoclonal antibody 1E7 (antibody, mouse IgG1, kappa, V domains shown)
VH: QVQLQQSGAELAKPGASVKMSCKTSGYTFTSYWMHWVKQRPGQGLEWIGYINPTTGYTDCNQKFKDKATLTADKSSNTAYLQLSSLTSEDSAVYYCARSAMFGRGWGQGTTLTVSS
VL: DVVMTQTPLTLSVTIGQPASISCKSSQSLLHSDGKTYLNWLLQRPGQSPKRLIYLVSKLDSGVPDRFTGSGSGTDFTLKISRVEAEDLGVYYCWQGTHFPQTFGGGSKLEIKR
notes: also called mAb 1E7; IDO mAb 1E7
